Laboratory results taken from patent US6500927B2 (priority 1998, dated 2002).

Tests used:
[1] = molecular target: MOR-1D splice variant of the mu-opioid receptor-1 (mouse) (UniProt P42866); assay: competition with ^3H-DAMGO, CHO cell membranes
MOR-1D = molecular target: T1, MOR-1D (Mus musculus, UniProt P42866); type: binding; details: MOR-1D vs MOR-1, p<0.05
T1 construct: The cDNA fragments containing the full length MOR-1 or the MOR-1 variants in pCRII-ToPo were subcloned into pcDNA3.1; expressed in transfected cells

[2] = molecular target: MOR-1 (mu-opioid receptor-1, full length) (mouse) (UniProt P42866); assay: saturation radioligand binding, membranes of stably transfected CHO cells
[3] = molecular target: MOR-1E splice variant of the mu-opioid receptor-1 (mouse) (UniProt P42866); assay: as above
[4] = molecular target: MOR-1D splice variant of the mu-opioid receptor-1 (mouse) (UniProt P42866); assay: as above
[5] = molecular target: MOR-1C splice variant of the mu-opioid receptor-1 (mouse); assay: as above
[6] = molecular target: MOR-1 (mu-opioid receptor-1, full length) (mouse) (UniProt P42866); assay: competition with ^3H-DAMGO, CHO cell membranes
[7] = molecular target: MOR-1E splice variant of the mu-opioid receptor-1 (mouse) (UniProt P42866); assay: competition with ^3H-DAMGO, CHO cell membranes
[8] = molecular target: MOR-1C splice variant of the mu-opioid receptor-1 (mouse); assay: competition with ^3H-DAMGO, CHO cell membranes
MOR-1E = molecular target: T2, MOR-1E (Mus musculus, UniProt P42866); type: binding; details: MOR-1E vs MOR-1
T2 construct: The cDNA fragments containing the full length MOR-1 or the MOR-1 variants in pCRII-ToPo were subcloned into pcDNA3.1; expressed in transfected cells

Row | Substance | Ki [6] | Ki [7] | Ki [1] | Ki [8] | also measured
1 | [D-Ser^2, Leu^5]enkephalin-Thr^6 (DSLET) (peptide) |  |  |  |  | fold potency against MOR-1 [1]: 2 fold
2 | [D-Ser^2, Leu^5]enkephalin-Thr^6 [DSLET] |  |  |  |  | Potency against binding to MOR-1D relative to MOR-1 (in words) (MOR-1D): twice as potent
3 | [D-Ala^2, MePhe^4, Gly(ol)^5]enkephalin (DAMGO) (peptide) | 1.8 nM | 1.2 nM | 0.71 nM | 0.93 nM | Kd [2]: 1.75 nM; Kd [3]: 1.2 nM; Kd [4]: 0.72 nM; Kd [5]: 0.93 nM
4 | DADLE (peptide) | 2.1 nM | 2.5 nM | 1.3 nM | 3.2 nM | 
5 | β-endorphin: endogenous opioid peptide |  |  |  |  | Affinity of MOR-1E compared with MOR-1 (MOR-1E): significantly higher affinity
